The subject of one data set is HEK-293 cells. Nature of the data set: XTT cytotoxicity on HEK-293 cells. Conditions: HEK-293 cells, 24 h, p < 0.05, n = 4. Here is the method: (§1) HEK-293 cells (15,000/well), seeded in 96-well plates, were allowed to attach for 24 h. […] To evaluate cytotoxicity, XTT solution was added to each well at 24 and 72 h after treatment per manufacturer protocol. Following a 3-h incubation period, the absorbance of each well was measured at 450 nm using a Biotek ELx808 microplate reader (Lonza). Average absorbance values of the cells treated with different concentrations of test agents were normalized to those of untreated cell controls, and percent cell viability was plotted using GraphPad Prism 10.
(§2) IC50 values were calculated by concentration-response curve fitting using Microsoft Excel 16.77 (Microsoft Corp). Data represent mean ± standard deviation (SD) unless otherwise indicated. Differences between groups were determined by ANOVA, with a p-value < 0.05 deemed statistically significant.
In general terms: Formazan colour is commonly taken as a measure of viable cells.

Data set [1] in a line: XTT cytotoxicity on HEK-293 cells. On the procedure:
as §1, §2

Data set [2] in a line: XTT cytotoxicity on U87MG cells. Here is the method:
U87MG cells (10,000 cells per well) were seeded in 96-well plates and allowed to attach for 24 h. […] To evaluate cytotoxicity, XTT solution was added to each well per manufacturer protocols at 24 and 72 h after treatment. Following a 3-h incubation period, the absorbance of each well was measured at 450 nm using a Biotek ELx808 microplate reader (Lonza, Basel, Switzerland). Average absorbance values of the cells treated with different concentrations of test agents were normalized to those of the untreated cell controls. GraphPad Prism 10 was used to plot percent cell viability.
U87MG cells (10,000/well), seeded in 96-well plates, were allowed to attach for 24 h. The cells, incubated at 37 °C, were then treated with rucaparib solution at concentrations ranging from 5 nM to 160 nM. To evaluate cytotoxicity, XTT solution was added to each well at 24 and 72 h after treatment per manufacturer protocol. Following a 3-h incubation period, the absorbance of each well was measured at 450 nm using a Biotek ELx808 microplate reader (Lonza). The average absorbance of the cells treated with different concentrations of rucaparib were normalized to those of untreated cell controls. […]
IC50 values were calculated by concentration-response curve fitting using Microsoft Excel 16.77 (Microsoft Corp). […] Differences between groups were determined by ANOVA, with a p-value < 0.05 deemed statistically significant.

The target of another data set is T1, human liver cathepsin B (Homo sapiens, UniProt P07858).
T1 construct: human liver cathepsin B stock (0.47 mg/mL, 324 U/mg, Merck Millipore); purchased Merck Millipore; host or cells: human liver (tissue-derived, as the product name says)
The data set can be described thus: In vitro cleavage of T7-SN-38-rucaparib by exogenous cathepsin B (RP-HPLC). The format is in vitro ADME. Conditions: sodium acetate buffer with EDTA and DTT, pH 6.0, 37 °C, conjugate 210 µM, n = 3. On the procedure: The cleavage profile of T7-SN-38-rucaparib was evaluated by following a published method. Using this method, 11 μL of human liver cathepsin B stock (0.47 mg/mL, 324 U/mg, Merck Millipore) was activated in 27.2 μL of activation buffer (30 mM DTT, 15 mM EDTA in H2O) for 15 min. This mixture was added to 4.9 mL of reaction buffer (150 mM sodium acetate buffer, 12 mM EDTA, 24 mM DTT in H2O, pH 6.0). Cleavage was initiated by adding the cathepsin B solution to the T7-SN-38-rucaparib stock solution (8) in DMSO (final concentration 210 µM). The reaction was allowed to proceed at 37 °C, and samples were taken and analyzed by RP-HPLC at predetermined intervals (0–24 h). Changes in peak areas of the pure drugs and conjugate at their characteristic retention times to observe the disappearance of T7-SN-38-rucaparib and the appearance of free SN-38 and rucaparib over a 24 h period were monitored.

The test system of data set [3] is U87MG cells with blocked transferrin receptors. Nature of the data set: T7 competition assay with or without exogenous cathepsin B on TfR-blocked U87MG cells. To be noted: 20 nM drug equivalents, exogenous cathepsin B added, 72 h, XTT, n = 4. Here is the method: In these studies, blocking was done as reported for the transferrin receptor blocking studies above. […] In an additional step, exogenous cathepsin B was added to the treated wells. In a parallel experiment, cells were treated with the same test agents at the same concentrations but without exogenous cathepsin B. XTT assays were conducted at 72 h following the manufacturer’s protocol for cytotoxicity. Percent cell viability was calculated, and the data were plotted using GraphPad Prism 10.

Data set [4] in a line: Control incubation of conjugate in enzyme-free buffer pH 6.0. The format is in vitro ADME. Conditions: pH 6.0, no cathepsin B, RP-HPLC, over 24 h. Here is the method:
The cleavage profile of T7-SN-38-rucaparib was evaluated by following a published method. […] This mixture was added to 4.9 mL of reaction buffer (150 mM sodium acetate buffer, 12 mM EDTA, 24 mM DTT in H2O, pH 6.0). […] The reaction was allowed to proceed at 37 °C, and samples were taken and analyzed by RP-HPLC at predetermined intervals (0–24 h). Changes in peak areas of the pure drugs and conjugate at their characteristic retention times to observe the disappearance of T7-SN-38-rucaparib and the appearance of free SN-38 and rucaparib over a 24 h period were monitored.

SMILES strings stand for the structures.

As a reminder, the IC50 is the midpoint of a concentration-inhibition curve. Read a high IC50 as weaker potency.

For the compound `CCc1c2c(nc3ccc(OCc4ccc(NC(=O)[C@H](C)NC(=O)[C@@H](NC(=O)CCCCCNC(=O)COCCOCCOCCNC(=O)CCCCC(=O)N5Cc6ccccc6-c6c(nnn6CCOCCOCCOCCOCCC(=O)N[C@@H](CSC6CC(=O)N(CCC(=O)NCCOCCOCCOCCOCCC(=O)NCCCCCC(=O)N[C@H](C(=O)N[C@@H](C)C(=O)Nc7ccc(COC(=O)N(C)Cc8ccc(-c9[nH]c%10cc(F)cc%11c%10c9CCNC%11=O)cc8)cc7)C(C)C)C6=O)C(=O)NCCOCCOCCOCC(=O)N[C@@H](Cc6c[nH]cn6)C(=O)N[C@@H](C)C(=O)N[C@H](C(=O)N[C@@H](Cc6ccc(O)cc6)C(=O)N6CCC[C@H]6C(=O)N[C@@H](CCCNC(=N)N)C(=O)N[C@@H](Cc6c[nH]cn6)C(=O)O)[C@@H](C)CC)-c6ccccc65)C(C)C)cc4)cc13)-c1cc3c(c(=O)n1C2)COC(=O)[C@]3(O)CC` (stereo partly drawn) [T7-SN-38-rucaparib], the “cytotoxicity, conjugate versus free drugs” value in the data set with HEK-293 cells is reported as “significantly lower cytotoxicity compared to free SN-38-rucaparib”. In addition, the IC50 in data set [1] amounted to 116 nM; in data set [2], 22.3 nM. Also, the “Percent Cleaved” value came out at 17.8% with human liver cathepsin B (time 1 h), 43.8% with human liver cathepsin B (time 4 h), 61.6% with human liver cathepsin B (time 8 h) and 87.3% with human liver cathepsin B (time 24 h). For the same compound, the “cytotoxicity with exogenous cathepsin B” value in data set [3] is given as “comparable cytotoxicity to the cells treated with free drugs”. Moreover, in data set [4], the “release of free drugs in enzyme-free buffer” value is on record as less than 10%.
